Data taken from PMC11869483.

Target: PcaLOOL12 (loosenin from Phanerochaete carnosa) produced in Pichia pastoris with a C-terminal His6-tag (Phanerochaete carnosa)
Assay: SEC-SAXS

“PcaLOOL12 (loosenin from Phanerochaete carnosa) produced in Pichia pastoris with a C-terminal His6-tag (natural protein)” gave a stoichiometry N of 2.
